Laboratory results taken from patent US20250250334A1 (MEDICOVESTOR, published 2025).

B1: Mirvetuximab (antibody, V domains shown)
VH: QVQLVQSGAEVVKPGASVKISCKASGYTFTGYFMNWVKQSPGQSLEWIGRIHPYDGDTFYNQKFQGKATLTVDKSSNTAHMELLSLTSEDFAVYYCTRYDGSRAMDYWGQGTTVTVSS
VL: DIVLTQSPLSLAVSLGQPAIISCKASQSVSFAGTSLMHWYHQKPGQQPRLLIYRASNLEAGVPDRFSGSGSKTDFTLTISPVEAEDAATYYCQQSREYPYTFGGGTKLEIK
B2: lead fully-human anti-FRalpha IgG1 antibody (antibody according to SEQ ID NO: 3-12) (antibody, V domains shown)
VH: EVQLLESGGGLVKPGGSLRLSCAASGFTFSSYTMNWVRQAPGKGLEWVSSISSGGGYIYYADSVKDRFTISRDNAKNSLYLQMNSLRAEDTAVYYCAKGDTIMIISAWGQGTTVTVSS
VL: DIQLTQSPSTLSASVGDRVTITCRASQSISSWLAWHQQKPGKAPKLLIYAASSLQNGVPSRFSGSGFGTDFTLTISSLQPEDFATYYCQQASSFPLTFGGGTKVEIKR
notes: Fully human IgG1/kappa; also called lead antibody

Assays:
[1] = biological target: T1, fusion protein containing the extracellular domain of human FRalpha and a polyhistidine tag (human, UniProt P15328 25-233); assay: ELISA, coated human FRalpha ECD-His
T1 construct: extracellular domain; Coated on ELISA plates; also called human FRalpha extracellular domain; not shown: polyhistidine tag
Description: (§1) The affinity of each IgG1 for FRalpha was confirmed by ELISA. Briefly, a fusion protein containing the extracellular domain of human FRalpha and a polyhistidine tag was used to coat ELISA plates, which were washed three times with phosphate-buffered saline (PBS) containing 0.1 percent polysorbate 20 (PBST), then blocked with PBS containing 5 percent powdered milk (PBSM), and then washed three more times with PBST. Wells were then incubated with antibodies at varying concentrations for 60 minutes at room temperature in 1 percent PBSM. Wells were then washed three times with PBST, after which the secondary, horseradish-peroxidase-conjugated antibody anti-human-IgG-Fc-HRP (ab97225, Abcam, United Kingdom) was added at a 1:8000 dilution in 1 percent PBSM for 50 minutes at room temperature. The wells were then washed six times with PBST, after which 3,3′, 5,5″-tetramethylbenzidine (TMB) was added. The reaction was stopped with 2 molar sulfuric acid, and the TMB diamine product was quantified at 450 nanometers in a plate reader. Results are depicted in FIG. 2.

[2] = biological target: T2, human FRalpha expressed on cells (transfected HEK293 cells; SKOV3 human ovarian cancer cells) (human, UniProt P15328 25-234); assay: flow cytometry, HEK293 cells transfected to express FRalpha
T2 construct: whole, on cells; also called human folate receptor alpha
Description: (§2) The affinity of each antibody was then assessed by flow cytometry. Briefly, HEK293 cells transfected to express FRalpha were washed with fluorescence-activated cell sorting (FACS) buffer, to which the IgGs were added at varying concentrations and incubated at 4 degrees Celsius for 60 minutes. The cells were then centrifuged and washed twice in FACS buffer. A phycoerythrin-labelled anti-human IgG, Fcgamma antibody (109-115-098; Jackson ImmunoResearch, Pennsylvania, United States) was then added to the cells at a 1:200 dilution and incubated at 4 degrees Celsius for 30 minutes. The cells were then washed, resuspended in FACS buffer, and counted by flow cytometry. Results are depicted in FIG. 4.

[3] = biological target: T3, fusion protein containing the extracellular domain of cynomolgus FRalpha and a polyhistidine tag (cynomolgus, UniProt A0A2K5U044 25-233); assay: ELISA, coated cynomolgus FRalpha ECD-His
T3 construct: extracellular domain; Coated on ELISA plates; also called cynomolgus FRalpha extracellular domain; not shown: polyhistidine tag
Description: as §1
The ELISA of the preceding paragraph was repeated with a fusion protein containing the extracellular domain of cynomolgus FRalpha and a polyhistidine tag. Results are depicted in FIG. 3.

[4] = biological target: T2, human FRalpha expressed on cells …; assay: flow cytometry, SKOV3 human ovarian cancer cells that express FRalpha
Description: as §2
The flow cytometry experiment of the preceding paragraph was repeated with a human ovarian cancer cell line that expresses FRalpha, SKOV3. Results are depicted in FIGS. 5A and 5B. […] The antibody according to SEQ ID NO: 3-12 was then designated the lead antibody for further development.

T2 sequence (P15328 25-234): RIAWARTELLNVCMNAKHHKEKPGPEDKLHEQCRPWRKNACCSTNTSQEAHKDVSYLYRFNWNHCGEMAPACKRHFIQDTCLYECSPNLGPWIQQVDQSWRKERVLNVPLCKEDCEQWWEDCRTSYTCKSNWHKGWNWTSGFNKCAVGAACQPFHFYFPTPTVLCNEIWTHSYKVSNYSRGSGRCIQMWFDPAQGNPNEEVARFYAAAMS
T3 sequence (A0A2K5U044 entry or part of it): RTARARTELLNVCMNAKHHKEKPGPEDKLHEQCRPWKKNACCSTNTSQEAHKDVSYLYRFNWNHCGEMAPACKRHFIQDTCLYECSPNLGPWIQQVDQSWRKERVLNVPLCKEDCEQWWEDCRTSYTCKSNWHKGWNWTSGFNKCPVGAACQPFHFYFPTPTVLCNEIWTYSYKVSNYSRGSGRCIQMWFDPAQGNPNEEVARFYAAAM
T1 sequence (P15328 25-233 limits assumed): as the sequence (A0A2K5U044 entry or part of it) above, with T2I, R4W, K37R, P146A, Y171H counted along it

Binder	EC50 [1]	EC50 [2]	EC50 [3]	EC50 [4]
B1	~0.12 nM	~4 nM	~0.16 nM	–
B2	~0.05 nM	~5 nM	~0.06 nM	< 1 nM
